In PMC6364807 (Nature, 2019):

Molecular target: human GABAA receptor β3 subunit (human, UniProt P28472, N-linked glycans at Asn80 and Asn149)
Assay: cryo-EM structure

Sequence of human GABAA receptor β3 subunit (P28472 26-473): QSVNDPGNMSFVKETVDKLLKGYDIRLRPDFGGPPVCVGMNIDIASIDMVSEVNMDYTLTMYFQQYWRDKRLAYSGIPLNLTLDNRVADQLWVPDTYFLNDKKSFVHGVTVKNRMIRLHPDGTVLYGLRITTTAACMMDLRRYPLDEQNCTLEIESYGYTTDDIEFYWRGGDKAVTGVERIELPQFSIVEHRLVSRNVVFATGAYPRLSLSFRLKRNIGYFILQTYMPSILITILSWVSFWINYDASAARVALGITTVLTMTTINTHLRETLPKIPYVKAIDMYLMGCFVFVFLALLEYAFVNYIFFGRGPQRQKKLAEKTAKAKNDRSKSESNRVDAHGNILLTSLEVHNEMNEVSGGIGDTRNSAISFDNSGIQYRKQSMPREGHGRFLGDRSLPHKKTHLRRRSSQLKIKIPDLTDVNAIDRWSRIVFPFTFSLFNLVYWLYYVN

B1: megabody MbNb38^cHopQ (VHH)
VHH: QVQLQESGGGLVQAGGSLRVSCAASGRTFTAYIMAWFRQAPGKEREFLAAMDQGRIQYYGDSVRGRFTISRDYAKNSVDLQLDGLRPEDTAVYYCAAGAGFWGLRTASSYHYWGQGTQVTVSS
binding result: binds
